The record followed here is patent publication US20180258163A1 (Chugai, published 2018).

First the molecules themselves.
T1: soluble human FcγRIIb (human, UniProt P31994 43-217, limits assumed)
T1 construct: soluble His-tagged form; also called hFcγRIIb
T1 sequence (looked up): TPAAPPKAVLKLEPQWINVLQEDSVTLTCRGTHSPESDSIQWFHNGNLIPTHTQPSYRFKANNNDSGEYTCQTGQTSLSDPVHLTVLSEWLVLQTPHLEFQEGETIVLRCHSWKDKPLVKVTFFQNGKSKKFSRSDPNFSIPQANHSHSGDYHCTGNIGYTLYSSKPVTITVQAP

B1: Ab1H/Ab1L022 (antibody, human IgG1, kappa)
heavy: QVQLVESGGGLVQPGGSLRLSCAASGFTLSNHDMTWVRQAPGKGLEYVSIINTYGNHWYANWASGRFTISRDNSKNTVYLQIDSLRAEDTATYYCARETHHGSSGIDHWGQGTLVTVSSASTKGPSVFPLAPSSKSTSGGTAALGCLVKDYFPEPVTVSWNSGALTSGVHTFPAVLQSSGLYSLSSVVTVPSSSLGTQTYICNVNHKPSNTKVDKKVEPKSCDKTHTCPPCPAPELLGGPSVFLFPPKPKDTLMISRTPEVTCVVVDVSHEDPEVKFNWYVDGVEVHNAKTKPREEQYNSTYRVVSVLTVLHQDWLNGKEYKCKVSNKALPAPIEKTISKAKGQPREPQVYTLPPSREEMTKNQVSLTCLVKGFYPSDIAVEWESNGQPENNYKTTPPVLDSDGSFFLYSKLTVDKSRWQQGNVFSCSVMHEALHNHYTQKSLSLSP
light: DIQMTQSPSSVSASVGDRVTITCRASRSIYSGLAWYQQKPGQPPKLLIYDHSTLASGVPSRFSGSGSGTEYALKISRLQPEDFATYYCQHADYAHHSDNVFGGGTKVEIKRTVAAPSVFIFPPSDEQLKSGTASVVCLLNNFYPREAKVQWKVDNALQSGNSQESVTEQDSKDSTYSLSSTLTLSKADYEKHKVYACEVTHQGLSSPVTKSFNRGEC
notes: copies: 2 + 2
B2: Ab1H/Ab1L030 (antibody, human IgG1, kappa)
heavy: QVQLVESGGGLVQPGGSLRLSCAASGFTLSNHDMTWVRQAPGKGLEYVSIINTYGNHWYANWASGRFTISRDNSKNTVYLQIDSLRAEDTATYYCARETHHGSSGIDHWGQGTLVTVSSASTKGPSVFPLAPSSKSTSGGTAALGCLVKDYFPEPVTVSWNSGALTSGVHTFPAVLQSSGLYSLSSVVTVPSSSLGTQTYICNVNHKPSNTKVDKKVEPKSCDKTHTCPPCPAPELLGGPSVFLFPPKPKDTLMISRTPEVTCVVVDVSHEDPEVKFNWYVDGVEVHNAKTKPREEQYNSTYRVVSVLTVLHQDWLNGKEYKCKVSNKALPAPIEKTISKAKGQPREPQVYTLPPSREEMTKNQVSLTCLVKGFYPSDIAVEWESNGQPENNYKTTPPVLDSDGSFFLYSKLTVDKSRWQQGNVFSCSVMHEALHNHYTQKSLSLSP
light: DIQMTQSPSSVSASVGDRVTITCQRRESIYSGLAWYQQKPGQPPKLLIYDHSTLASGVPSRFSGRGSGREYALTISSLQPEDFATYYCQHADYAHHSDNVFGGGTKVEIKRTVAAPSVFIFPPSDEQLKSGTASVVCLLNNFYPREAKVQWKVDNALQSGNSQESVTEQDSKDSTYSLSSTLTLSKADYEKHKVYACEVTHQGLSSPVTKSFNRGEC
notes: copies: 2 + 2
B3: Ab1H/Ab1L033 (antibody, human IgG1, kappa)
heavy: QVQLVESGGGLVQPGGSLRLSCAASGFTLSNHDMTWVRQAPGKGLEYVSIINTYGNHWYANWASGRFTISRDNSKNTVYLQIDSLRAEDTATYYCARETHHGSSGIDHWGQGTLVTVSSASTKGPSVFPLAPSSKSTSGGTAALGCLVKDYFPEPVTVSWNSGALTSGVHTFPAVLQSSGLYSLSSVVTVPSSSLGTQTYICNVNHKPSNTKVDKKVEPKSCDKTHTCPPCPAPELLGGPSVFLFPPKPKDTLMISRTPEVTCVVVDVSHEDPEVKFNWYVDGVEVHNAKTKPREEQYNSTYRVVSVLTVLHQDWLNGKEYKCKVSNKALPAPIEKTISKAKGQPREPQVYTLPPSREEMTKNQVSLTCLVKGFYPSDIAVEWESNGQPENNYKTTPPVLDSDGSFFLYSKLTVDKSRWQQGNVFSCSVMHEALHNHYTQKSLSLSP
light: DIQMTQSPSSVSASVGDRVTITCRASRSIYSGLAWYQQKPRKPPKLLIYDHSTLASGVPSRFSGRGSGREYALTISSLQPEDFATYYCQHADYAHHSDNVFGGGTKVEIKRTVAAPSVFIFPPSDEQLKSGTASVVCLLNNFYPREAKVQWKVDNALQSGNSQESVTEQDSKDSTYSLSSTLTLSKADYEKHKVYACEVTHQGLSSPVTKSFNRGEC
notes: copies: 2 + 2
B4: Ab1H/Ab1L029 (antibody, human IgG1, kappa)
heavy: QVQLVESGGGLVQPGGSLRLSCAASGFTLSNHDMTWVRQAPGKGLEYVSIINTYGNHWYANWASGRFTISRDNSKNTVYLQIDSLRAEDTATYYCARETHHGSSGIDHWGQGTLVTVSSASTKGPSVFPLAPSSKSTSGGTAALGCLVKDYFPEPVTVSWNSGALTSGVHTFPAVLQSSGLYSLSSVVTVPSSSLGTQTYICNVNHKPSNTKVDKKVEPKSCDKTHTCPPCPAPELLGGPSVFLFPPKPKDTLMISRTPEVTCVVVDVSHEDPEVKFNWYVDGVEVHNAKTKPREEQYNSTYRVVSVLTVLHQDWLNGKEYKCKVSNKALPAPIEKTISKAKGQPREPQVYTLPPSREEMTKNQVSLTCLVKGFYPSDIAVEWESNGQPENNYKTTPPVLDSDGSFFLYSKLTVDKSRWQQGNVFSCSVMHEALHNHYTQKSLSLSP
light: DIQMTQSPSSVSASVGDRVTITCQRRESIYSGLAWYQQKPGQPPKLLIYDHKTLAKGVPSRFSGSGSGTEYALTISSLQPEDFATYYCQHADYAHHSDNVFGGGTKVEIKRTVAAPSVFIFPPSDEQLKSGTASVVCLLNNFYPREAKVQWKVDNALQSGNSQESVTEQDSKDSTYSLSSTLTLSKADYEKHKVYACEVTHQGLSSPVTKSFNRGEC
notes: copies: 2 + 2
B5: Ab1H/Ab1L028 (antibody, human IgG1, kappa)
heavy: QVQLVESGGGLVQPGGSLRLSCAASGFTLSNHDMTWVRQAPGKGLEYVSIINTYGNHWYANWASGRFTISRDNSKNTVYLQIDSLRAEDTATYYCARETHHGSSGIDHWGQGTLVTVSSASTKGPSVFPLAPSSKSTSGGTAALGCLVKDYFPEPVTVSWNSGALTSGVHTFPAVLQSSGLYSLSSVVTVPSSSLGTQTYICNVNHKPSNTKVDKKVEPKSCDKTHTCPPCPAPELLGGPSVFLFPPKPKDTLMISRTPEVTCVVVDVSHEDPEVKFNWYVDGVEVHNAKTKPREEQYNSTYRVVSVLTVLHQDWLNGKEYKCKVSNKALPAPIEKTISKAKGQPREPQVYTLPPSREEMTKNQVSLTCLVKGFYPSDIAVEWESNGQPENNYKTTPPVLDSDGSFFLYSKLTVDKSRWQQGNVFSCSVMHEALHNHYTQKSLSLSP
light: DIQMTQSPSSVSASVGDRVTITCQRRESIYSGLAWYQQKPGQPPKLLIYDHRTLARGVPSRFSGSGSGTEYALTISSLQPEDFATYYCQHADYAHHSDNVFGGGTKVEIKRTVAAPSVFIFPPSDEQLKSGTASVVCLLNNFYPREAKVQWKVDNALQSGNSQESVTEQDSKDSTYSLSSTLTLSKADYEKHKVYACEVTHQGLSSPVTKSFNRGEC
notes: copies: 2 + 2
B6: Ab1H/Ab1L034 (antibody, human IgG1, kappa)
heavy: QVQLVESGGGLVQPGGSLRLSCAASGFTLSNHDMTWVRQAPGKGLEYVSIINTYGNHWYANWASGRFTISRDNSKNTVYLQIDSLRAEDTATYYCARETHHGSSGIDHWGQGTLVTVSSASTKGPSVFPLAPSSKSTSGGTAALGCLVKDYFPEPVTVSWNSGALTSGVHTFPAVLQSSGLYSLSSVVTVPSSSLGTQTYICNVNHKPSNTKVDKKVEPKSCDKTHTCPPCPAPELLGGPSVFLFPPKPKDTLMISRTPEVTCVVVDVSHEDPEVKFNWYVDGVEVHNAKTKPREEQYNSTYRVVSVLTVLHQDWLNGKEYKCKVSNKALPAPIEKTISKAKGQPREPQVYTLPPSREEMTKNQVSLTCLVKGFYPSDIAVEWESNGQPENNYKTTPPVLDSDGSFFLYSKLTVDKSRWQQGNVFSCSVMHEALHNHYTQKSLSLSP
light: DIQMTQSPSSVSASVGDRVTITCRASRSIYSGLAWYQQKPGQPPKLLIYDHRTLARGVPSRFSGRGSGREYALTISSLQPEDFATYYCQHADYAHHSDNVFGGGTKVEIKRTVAAPSVFIFPPSDEQLKSGTASVVCLLNNFYPREAKVQWKVDNALQSGNSQESVTEQDSKDSTYSLSSTLTLSKADYEKHKVYACEVTHQGLSSPVTKSFNRGEC
notes: copies: 2 + 2
B7: Ab1H/Ab1L025 (antibody, human IgG1, kappa)
heavy: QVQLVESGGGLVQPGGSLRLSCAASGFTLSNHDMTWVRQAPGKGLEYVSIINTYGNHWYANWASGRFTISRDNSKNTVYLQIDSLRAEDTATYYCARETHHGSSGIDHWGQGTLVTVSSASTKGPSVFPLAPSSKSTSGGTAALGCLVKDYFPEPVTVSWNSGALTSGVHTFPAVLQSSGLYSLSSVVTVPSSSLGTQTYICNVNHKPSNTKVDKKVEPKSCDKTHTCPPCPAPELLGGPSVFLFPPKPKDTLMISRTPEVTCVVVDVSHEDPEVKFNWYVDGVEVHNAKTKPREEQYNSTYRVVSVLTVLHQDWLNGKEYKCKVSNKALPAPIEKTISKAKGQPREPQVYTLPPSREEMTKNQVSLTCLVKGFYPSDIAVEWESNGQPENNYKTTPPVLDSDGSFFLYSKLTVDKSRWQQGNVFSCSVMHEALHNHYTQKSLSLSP
light: DIQMTQSPSSVSASVGDRVTITCQRRESIYSGLAWYRQKPGQPPKLLIYDHSTLASGVPSRFSGSGSGTEYALTISSLQPEDFATYYCQHADYAHHSDNVFGGGTKVEIKRTVAAPSVFIFPPSDEQLKSGTASVVCLLNNFYPREAKVQWKVDNALQSGNSQESVTEQDSKDSTYSLSSTLTLSKADYEKHKVYACEVTHQGLSSPVTKSFNRGEC
notes: copies: 2 + 2
B8: Ab1H/Ab1L023 (antibody, human IgG1, kappa)
heavy: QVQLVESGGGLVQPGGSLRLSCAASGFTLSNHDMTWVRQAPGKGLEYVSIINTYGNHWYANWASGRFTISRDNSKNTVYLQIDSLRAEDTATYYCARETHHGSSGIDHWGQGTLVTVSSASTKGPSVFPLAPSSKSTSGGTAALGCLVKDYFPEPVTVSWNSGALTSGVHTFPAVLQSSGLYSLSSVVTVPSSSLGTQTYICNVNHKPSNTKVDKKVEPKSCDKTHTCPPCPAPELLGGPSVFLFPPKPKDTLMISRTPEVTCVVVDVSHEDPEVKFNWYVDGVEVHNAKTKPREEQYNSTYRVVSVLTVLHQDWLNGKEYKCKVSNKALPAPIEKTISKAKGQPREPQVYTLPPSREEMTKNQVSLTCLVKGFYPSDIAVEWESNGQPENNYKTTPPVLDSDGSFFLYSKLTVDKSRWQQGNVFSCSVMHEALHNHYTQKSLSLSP
light: DIQMTQSPSSVSASVGDRVTITCRASRSIYSGLAWYQQKPGQPPKLLIYDHSTLASGVPSRFSGSGSGTEYALTIRSLKPEDFATYYCQHADYAHHSDNVFGGGTKVEIKRTVAAPSVFIFPPSDEQLKSGTASVVCLLNNFYPREAKVQWKVDNALQSGNSQESVTEQDSKDSTYSLSSTLTLSKADYEKHKVYACEVTHQGLSSPVTKSFNRGEC
notes: copies: 2 + 2

The test addresses T1, soluble human FcγRIIb. Briefly: SPR, Ab-IgE complex over captured hFcγRIIb, pH 7.4, 25C. On the procedure: Regarding the produced Fc region variant-containing antibodies, binding assays between soluble human FcγRIIb and antigen-antibody complexes were performed using BIACORE T200 (GE Healthcare). Soluble human FcγRIIb (NCBI accession NM_004001.3) was produced in the form of a His-tagged molecule by a method known in the art. An appropriate amount of an anti-His antibody was fixed onto Sensor chip CM5 (GE Healthcare) by the amine coupling method using a His capture kit (GE Healthcare) to capture human FcγRIIb. Next, an antibody-antigen complex and a running buffer (as a reference solution) were injected, and interaction was allowed to take place with the human FcγRIIb captured onto the sensor chip. 20 mM N-(2-Acetamido)-2-aminoethanesulfonic acid, 150 mM NaCl, 1.2 mM CaCl₂, and 0.05% (w/v) Tween 20 at pH 7.4 was used as the running buffer, and the respective buffer was also used to dilute the soluble human FcγRIIb. To regenerate the sensor chip, 10 mM glycine-HCl at pH 1.5 was used. All measurements were carried out at 25° C. Analyses were performed based on binding (RU) calculated from sensorgrams obtained by the measurements, and relative values when the binding amount of Ab1H/Ab1L (original Ab1) was defined as 1.00 are shown. To calculate the parameters, the BIACORE T100 Evaluation Software (GE Healthcare) was used.
As for B1, the “BIACORE fold (relative binding, original Ab1=1.00)” value came out at 1.45 fold.
For B2 the value was 1.16 fold; for B3, 1.26 fold; for B4, 1.23 fold.
As for B5, the “BIACORE fold (relative binding, original Ab1=1.00)” value amounted to 1.46 fold.
On to B6, for which the “BIACORE fold (relative binding, original Ab1=1.00)” value was 1.71 fold.
In the case of B7, the “BIACORE fold (relative binding, original Ab1=1.00)” value was 1.39 fold.
Turning to B8, the “BIACORE fold (relative binding, original Ab1=1.00)” value stood at 1.39 fold.
